The assay deals with cells stably overexpressing FGFR2 (FGFR2IIIb). Description: growth of cells stably overexpressing FGFR2 (FGFR2IIIb) (FIG. 16F left). Type of assay: cell-based. An excerpt:
FIG. 16A-16F provide schematic illustrations, blots and graphs related to the development of a NANOBIT® assay to measure FGFR2 dimerization. Such an assay is used to screen biparatopic screening for their ability to disrupt FGFR2 dimerization. […] The protein interactions bring the subunits into close proximity to form a functional enzyme that generates a bright, luminescent signal. (FIG. 16B). […] FIG. 16E presents a graph of the results of the NANOBIT® assay using NANOBIT® constructs with or without FGF10 ligand. […] As shown in the graph on the left side of FIG. 16F, certain of the antibodies A-F inhibited the growth of BaF3 cells stably overexpressing FGFR2 (FGFR2IIIb). Antibody D was used in the NANOBIT® assay (graph on the right of FIG. 16F). In the rightmost graph in FIG. 16F, the fold luminescence resulting from FGFR2 WT (wild type) in the assay is represented by the left bar in each set of three bars; the fold luminescence resulting from FGFR2+FGF10 ligand in the assay is represented by the middle bar in each set of three bars; and the fold luminescence resulting from +/−FGF10 ligand difference in the assay is represented by the right bar in each set of three bars shown in FIG. 16F.
Different expression constructs (e.g., up to eight) were made encoding LgBiT and SmBiT fused to the N and C termini of protein:protein pairs. […]

B1: 2B 1.3.12 (antibody, V domains shown)
VH: EVQLVESGGGLVQPGGSLRLSCAASGFPFTSTGISWVRQAPGKGLEWVGRTHLGDGSTNYADSVKGRFTISADTSKNTAYLQMNSLRAEDTAVYYCARTYGIYDTYDMYTEYVMDYWGQGTLVTVSS
VL: DIQMTQSPSSLSASVGDRVTITCRASQDVDTSLAWYKQKPGKAPKLLIYSASFLYSGVPSRFSGSGSGTDFTLTISSLQPEDFATYYCQQSTGHPQTFGQGTKVEIK
notes: the duobody scheme implies IgG1 with K409R or F405L; also called Antibody D; GE
Regarding B1, the “growth inhibition of cells stably overexpressing FGFR2 (FGFR2IIIb)” value is listed as “most pronounced effect”.

The values above are taken from patent US20230295308A1, “ANTAGONISTIC BIPARATOPIC ANTIBODIES THAT SPECIFICALLY BIND FIBROBLAST GROWTH FACTOR RECEPTOR 2 AND METHODS OF USING SAME” (The Broad Institute, Inc., priority 2020, published 2023).
